Consider 14 sequences from the DeepSol protein solubility set.

The data set can be described thus: soluble on expression in E. coli; label from the status in PepcDB or PDB records.
Regarding “MVIGVPKEIKTLENRVALTPGGVESLVRRGHTVLVERGAGEGSGLSDAEYARAGAELVGREEAWGAEMVVKVKEPLPEEYGFLREGLILFTYLHLAADRGLTEAMLRSGVTGIAYETVQLPDGTLPLLVPMSEVAGRMAPQVGAQFLEKPKGGRGVLLGGVPGVAPASVVILGGGTVGTNAAKIALGMGAQVTILDVNHKRLQYLDDVFGGRVITLTATEANIKKSVQHADLLIGAVLVPGAKAPKLVTRDMLSLMKEGAVIVDVAVDQGGCVETIRPTTHAEPTYVVDGVVHYGVANMPGAVPRTSTFALTNQTLPYVLKLAEKGLDALLEDAALLKGLNTHKGRLTHPGVAEAFGLPYTPPEEALRG”, the “soluble on expression in E. coli” value is given as “soluble”.
In the case of “MVIHIPVRESNYIEKILLPVMVYFIVNVKQNEWIYTILKEKFFYEEQEECHQILHMAHEILKGRRKGVAQDLTRNAFESYIKSSLNNWLCDPLSFSFSSYIRFRLRTYREMVAKLAEVAIDEYKMEQEYQMFIETLRQQVSSRKSRLSCVHLIFDESFIFYDDKGRRLKQEKLVQYIDEELLKQNDVYIDTKVIAPLLSISPKKIYLYTKEQDHNMIITLRNVFQERVQLHGLHDFERNVKNLKNKGNALDFLSFLEHHHHHH”, the “soluble on expression in E. coli” value was “soluble”.
The result for “MVIILAMTNREKFKVLADQIKISNQLEQDILEQGELTRIDVSNKNRTWTFQISLPHFLSHEDYLLFTHAIEEEFKEIATVAIDFSIKDTNNQDEFALKYFGHCIDQTRLSPKVKGQLKQKKLIMSGNVLKVLVSNDIERNHFDKACNGSLVKA” reads “not soluble”.
“MVIMSSTFMGYERENGRIGTRNHVLIIPVDDLSNTVAAAVENNIFGTRAILHPYGRLQFGADLDLTFRTLAGYGRNPNVASAIVVGIEDNWTNRIADQISQTGKHVETVSIEGSGDLKAIEKASRLAKEMAQESSTKTRKEFDVSNLIVSTKCGESDTTSGLASNPTVGVVFDRLVDEGATVIFGETSELTGAEKYIAEKMANNELKDKFMKIFNDYQDVIKSQGVDLLGSQPTEGNIKGGLSTIEEKALGNIQKAGTKKITGVLDYAEEPKSKGLNFMNTSSAAAEAVTLFAAAGAVVHLFTTGQGNIVGNHILPVIKTTANPKTAKNMAEHIDLDLSGLLKFEYTLKDAGDKLYNLLLETASGKLTSNEVLKHYEFALTKLYISA”: the “soluble on expression in E. coli” value was “not soluble”.
The result for “MVKATNVDLSLEDIISKTRKTTGSIQKKSFGGARRGNTRPTGLPRRSGGSGGWKDLDAVQNHGISSRGNDSKVIRVNISNLAPTVISSDLEELFGDYRLSSVSVNFNEHGDSLGTGDISLTKRDAERLVQKFSGVALDGKIMKFAVIDSSNMAGRVDFGNRSRSSPGRSSRGFQSGPRRNNGKPEDFLRDGVHAGDIKRGGAGRGGFRKGGRGGARDAKPKKTEAELDAELEAYMAKRNA” reads “soluble”; that for “MVKETKLYDLLGVSPSANEQELKKGYRKAALKYHPDKPTGDTEKFKEISEAFEILNDPQKREIYDQYGLEAARSGGPSFGPGGPGGAGGAGGFPGGAGGFSGGHAFSNEDAFNIFSQFFGGSSPFGGADDSGFSFSSYPSGGGAGMGGMPGGMGGMHGGMGGMPGGFRSASSSPTYPEEETVQVNLPVSLEDLFVGKKKSFKIGRKGPHGASEKTQIDIQLKPGWKAGTKITYKNQGDYNPQTGRRKTLQFVIQEKSHPNFKRDGDDLIYTLPLSFKESLLGFSKTIQTIDGRTLPLSRVQPVQPSQTSTYPGQGMPTPKNPSQRGNLIVKYKVDYPISLNDAQKRAIDENF”, “not soluble”.
Next, “MVKLAEFSRTATFAWSHDKIPLLVSGTVSGTVDANFSTDSSLELWSLLAADSEKPIASLQVDSKFNDLDWSHNNKIIAGALDNGSLELYSTNEANNAINSMARFSNHSSSVKTVKFNAKQDNVLASGGNNGEIFIWDMNKCTESPSNYTPLTPGQSMSSVDEVISLAWNQSLAHVFASAGSSNFASIWDLKAKKEVIHLSYTSPNSGIKQQLSVVEWHPKNSTRVATATGSDNDPSILIWDLRNANTPLQTLNQGHQKGILSLDWCHQDEHLLLSSGRDNTVLLWNPESAEQLSQFPARGNWCFKTKFAPEAPDLFACASFDNKIEVQTLQNLTNTLDEQETETKQQESETDFWNNVSREESKEKPSVFHLQAPTWYGEPSPAAHWAFGGKLVQITPDGKGVSITNPKISG”: “soluble”.
For “MVKLENSRKPEKISNKNIPMSDFVVNLDHGDPTAYEEYWRKMGDRCTVTIRGCDLMSYFSDMTNLCWFLEPELEDAIKDLHGVVGNAATEDRYIVVGTGSTQLCQAAVHALSSLARSQPVSVVAAAPFYSTYVEETTYVRSGMYKWEGDAWGFDKKGPYIELVTSPNNPDGTIRETVVNRPDDDEAKVIHDFAYYWPHYTPITRRQDHDIMLFTFSKITGHAGSRIGWALVKDKEVAKKMVEYIIVNSIGVSKESQVRTAKILNVLKETCKSESESENFFKYGREMMKNRWEKLREVVKESDAFTLPKYPEAFCNYFGKSLESYPAFAWLGTKEETDLVSELRRHKVMSRAGERCGSDKKHVRVSMLSREDVFNVFLERLANMKLIKSIDL”, the “soluble on expression in E. coli” value is reported as “soluble”.
Next, “MVKSQPILRYILRGIPAIAVAVLLSACSTTTNTAKNMHSETHAVGNSDSSSLQASQDEFENMVRNLDVKSRIMDQYADWKGVRYRLGGSTKKGVDCSSFVQRTFREQFGLELPRSTYEQQEMGKAVSRNNLRTGDLVLFRAGSTGRHVGIYIGNNQFVHASTSSGVIISSMNEPYWKKRYNEARRVLSRS”: “not soluble”; “MVKVTAACIIIGDEVLNGKVVDTNSTFFAKYCFDHGIQLKEIATIGDDETQIVDTVRRLVKNYDFIISTGGIGPTHDDITYECMAKSFNLPCELDEECKERMRHKSDPEARLDADALKAHYQMATMPKGTNVKNYYVCDDLWVPICSISHKMYILPGIPQLFARMLKAFTPTLKKIYNLDKDPREYVRYFVRTHLTESQISKELKLIQDESTKVSEAIKIGSYPHFGMGFNTVSILGEKKDDSYLKSIVNRVVNNLEGEVISSELENKFSNQES”: “not soluble”; “MVLETTSSRDGEIKLTVDQMLGKLARWIRLMGYDVYYPSGTVPDDEIITKSRSEGRIIITRDYGMYQKYPMSIFEPYDDINDQLRDFIAHFSSRMKDRFMRCPVCNGRLVKLRSKIPEYLRNHRDVYICTGCHKMYWKGSHYRRIYRKIENLRPKGE”: “soluble”.
“MVLKRKGLLIILDGLGDRPIKELNGLTPLEYANTPNMDKLAEIGILGQQDPIKPGQPAGSDTAHLSIFGYDPYETYRGRGFFEALGVGLDLSKDDLAFRVNFATLENGIITDRRAGRISTEEAHELARAIQEEVDIGVDFIFKGATGHRAVLVLKGMSRGYKVGDNDPHEAGKPPLKFSYEDEDSKKVAEILEEFVKKAQEVLEKHPINERRRKEGKPIANYLLIRGAGTYPNIPMKFTEQWKVKAAGVIAVALVKGVARAVGFDVYTPEGATGEYNTNEMAKAKKAVELLKDYDFVFLHFKPTDAAGHDNKPKLKAELIERADRMIGYILDHVDLEEVVIAITGDHSTPCEVMNHSGDPVPLLIAGGGVRTDDTKRFGEREAMKGGLGRIRGHDIVPIMMDLMNRSEKFGA”: the “soluble on expression in E. coli” value is recorded as “soluble”.
Next, “MVLTLDLADPAQPEHVFIVEDSRGATELKLYKSHYTIGKADSCDIRLHSIYASRQHATLVRFLTENGEVRYRLIDGDPETSRRSANGTYVNNRSITECDLKHYDQILFGALEHHHHHH”: “not soluble”; “MVMNQKNLFTRSALAAAIALISSNVSAAGFQLNEYSAAALGRAFSGEGAVADNASVGSRNPAAMTLFDRPSFSGGVIYIDPSVDITGTSPSGKSTDASNIAPSAWVPNLHFIMPLDEQWAIGASATSNYGLATEFNDDYVAGMLGGQTDLKTANLNLSAAYRLNDNFSFGLGFDAVYADAKIVRHLGEAGGGLLPANTEAARLEGTKWGYGWNTGILYEIDKENRYSFTYRSEVNIDFDGDYSNQLPVIFGGLGGKTVPGSLTLNLPAVWEVSGYNKVAPQWAIHYSMAYTTWSSFKELKATASNGDVLFDKHEGFRDAYRIALGTTYYYDDNWTFRTGIAFDDSPIPAGNRSISIPDQDRFWLSAGTTYAFNKNASVDVGIAYMKGQNVSITEKTPAPSNTTYEFNSKGSAMLYGVNFNYTF”: “not soluble”.
